In PMC6362314, “Both a Unique Motif at the C Terminus and an N-Terminal HEAT Repeat Contribute to G-Quadruplex Binding and Origin Regulation by the Rif1 Protein” (Molecular and Cellular Biology, 2018):

B1: Rif1 C-terminal 272-aa polypeptide (aa 1129 to 1400), wild type (domain or fragment, S. pombe, UniProt Q96UP3 1129-1400, looked up)
chain: KIDETKNEATDMEESLTTPSGKVNKEVIVDDTSLRDEAIVPDKAIDVADNSNALLKENISSQSNRKADNNGTPSVNNSFTTANNDECSKENSQIEPEGQTASREGVLSTPRSTRKKRKLGRKSQSSNVNKEVAISEVSATLENVEVIERHGISEQGQNLDESACVLTNESSLSQTEIPEEKTENETTAVNGFENSKKRQFSSLLSGSIDTNNESNKVSSVEFDKSGPQDIIQSMTEATFEIEKNIQDLKSEEVQKLSDLLMRLQRAILSRIA
notes: Rif1, fission yeast (S. pombe), 1,400 amino acids; C-terminal polypeptides were also made in 293T cells (N-terminal His6, C-terminal Flag3); also called Rif1(aa1129-1400); C-terminal polypeptide; source: E. coli, purified (nickel column, Mono Q column if necessary)
B2: Rif1 C-terminal 91-aa polypeptide (aa 1310 to 1400) (domain or fragment, S. pombe, UniProt Q96UP3 1310-1400, looked up)
chain: TENETTAVNGFENSKKRQFSSLLSGSIDTNNESNKVSSVEFDKSGPQDIIQSMTEATFEIEKNIQDLKSEEVQKLSDLLMRLQRAILSRIA
notes: Rif1, fission yeast (S. pombe), 1,400 amino acids; residues 1310-1400; also called C-terminal 91 amino acids; source: E. coli, purified (nickel column, Mono Q column if necessary)
B3: Rif1 C-terminal 148-aa polypeptide (aa 1253 to 1400) (domain or fragment, S. pombe, UniProt Q96UP3 1253-1400, looked up)
chain: SSNVNKEVAISEVSATLENVEVIERHGISEQGQNLDESACVLTNESSLSQTEIPEEKTENETTAVNGFENSKKRQFSSLLSGSIDTNNESNKVSSVEFDKSGPQDIIQSMTEATFEIEKNIQDLKSEEVQKLSDLLMRLQRAILSRIA
notes: Rif1, fission yeast (S. pombe), 1,400 amino acids; residues 1253-1400; source: E. coli, purified (nickel column, Mono Q column if necessary)
B4: Rif1 C-terminal 229-aa polypeptide (aa 1172 to 1400) (domain or fragment, S. pombe, UniProt Q96UP3 1172-1400, looked up)
chain: AIDVADNSNALLKENISSQSNRKADNNGTPSVNNSFTTANNDECSKENSQIEPEGQTASREGVLSTPRSTRKKRKLGRKSQSSNVNKEVAISEVSATLENVEVIERHGISEQGQNLDESACVLTNESSLSQTEIPEEKTENETTAVNGFENSKKRQFSSLLSGSIDTNNESNKVSSVEFDKSGPQDIIQSMTEATFEIEKNIQDLKSEEVQKLSDLLMRLQRAILSRIA
notes: Rif1, fission yeast (S. pombe), 1,400 amino acids; residues 1172-1400; source: E. coli, purified (nickel column, Mono Q column if necessary)

Molecular target: the molecule itself
Assay: native gel or EMSA; purified Rif1 C-terminal polypeptides on a native protein gel (5% to 20% gradient gel), CBB staining; self-association

Stoichiometry N, ≤ 16 subunits:
B1
B2
B3
B4
